For assay [1], the target named is T1, human lymphotoxin (TNFβ) (human) (UniProt P01374).
T1 sequence (looked up): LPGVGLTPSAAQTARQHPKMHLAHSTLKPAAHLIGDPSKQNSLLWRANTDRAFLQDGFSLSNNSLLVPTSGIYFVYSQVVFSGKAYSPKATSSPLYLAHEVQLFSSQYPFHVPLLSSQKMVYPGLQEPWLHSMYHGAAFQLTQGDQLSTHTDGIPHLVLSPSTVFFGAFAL
Nature of the assay: cell-based or functional assay.

For assay [2], the target named is human tumor necrosis factor-α (TNFα) (human) (UniProt P01375). Nature of the assay: cell-based or functional assay.
human tumor necrosis factor-α (TNFα) (human), sequence (P01375 77-233): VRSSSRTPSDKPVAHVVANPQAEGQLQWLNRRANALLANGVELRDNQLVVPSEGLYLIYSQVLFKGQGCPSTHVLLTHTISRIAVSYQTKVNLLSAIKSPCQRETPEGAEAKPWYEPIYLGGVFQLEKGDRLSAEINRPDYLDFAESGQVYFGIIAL

In assay [1], “p55-sf2 (p55 TNF receptor/IgG1 heavy chain single fusion with truncated light chain JCK) (from UniProt P19438 3-159) (Fc fusion)” gave an amount needed for the same degree of TNFβ inhibition, against p75P-sf2 of 3 fold.

B1: chimeric mouse/human IgG1 anti-platelet mAb (7E3) (antibody, INN chains, looked up, V domains shown)
VH: EVQLQQSGTVLARPGASVKMSCEASGYTFTNYWMHWVKQRPGQGLEWIGAIYPGNSDTSYIQKFKGKAKLTAVTSTTSVYMELSSLTNEDSAVYYCTLYDGYYVFAYWGQGTLVTVSA
VL: EIVLTQSPVTLSVTPGDSVSLSCRASRDISNNLHWFQQTSHESPRLLIKYASQSMSGIPSRFSGSGSGTDFTLSINSVETEDFGMYFCQQTNSWPYTFGGGTKLEIK
modifications: IgG1
Turning to B1, in assay [2], the IL-6 in supernatant of FS-4 fibroblasts after 18 h; TNF 0.3 ng/ml, antibody 4 µg/ml was found to be 1.6 ng/mL; the IL-6 in supernatant of FS-4 fibroblasts after 18 h; TNF 1.5 ng/ml, antibody 4 µg/ml was determined as 1.96 ng/mL; the IL-6 in supernatant of FS-4 fibroblasts after 18 h; TNF 7.5 ng/ml, antibody 4 µg/ml turned out to be 2.16 ng/mL.

Source of the values: US20030194402A1.
